System: EFT-400 tissues
Assay: Gene expression by quantitative PCR custom array in EFT-400 tissues with or without UV irradiation
Conditions: for AVG Ct ACTB (housekeeping gene) / AVG Ct AQP3 / AVG Ct BCL2L1 / AVG Ct COL1A1 / AVG Ct COL4A2 / AVG Ct COL5A1 / AVG Ct COL6A1 / AVG Ct COL6A2 / AVG Ct COL7A1 / AVG Ct COL8A1 / AVG Ct COL11A1 / AVG Ct COL12A1 / AVG Ct COL14A1 / AVG Ct COL15A1 / AVG Ct COL16A1 / AVG Ct DSG1 / AVG Ct ERCC1 / AVG Ct FN1 / AVG Ct GAPDH (housekeeping gene) / AVG Ct GDF15 / AVG Ct GSTM3 / AVG Ct HSPA8 / AVG Ct IL1A / AVG Ct IL1B / AVG Ct IL8 / AVG Ct KAL1 / AVG Ct KRT16 / AVG Ct LAMA1 / AVG Ct LAMA2 / AVG Ct LAMA3 / AVG Ct LAMA5 / AVG Ct LAMB1 / AVG Ct LAMB3 / AVG Ct LAMC1 / AVG Ct MMP1 / AVG Ct MMP2 / AVG Ct MT2A / AVG Ct PCNA / AVG Ct RPL13A (housekeeping gene) / AVG Ct SIRT1 / AVG Ct TGFBI / AVG Ct THBS3 / AVG Ct TNC / AVG Ct VTN: UVB + UVA
Protocol: EpiDerm-FT™ (EFT-400) tissues were produced and packaged in the MatTek Corporation GMP tissue culture production laboratories following standard procedures. Packaged tissues were stored at 4° C. overnight and then re-equilibrated in EFT-400-ASY medium overnight prior to the start of experiments. The sample size was n=3 for each treatment group in the gene expression experiments; and n=6 (two independent experiments of n=3) for the sunburned cell counts.
Total RNA was isolated from the EFT-400 tissues (RNAqueous kit, Ambion) (n=3) and utilized for gene expression analysis by quantitative PCR on an SABioscience custom array containing 42 Human Extracellular Matrix (ECM) and Adhesion Molecules RT^2 Profiler™ PCR Array, stress and toxicity genes whose expression, based on MatTek data, are known to be dramatically altered by UV-protective compounds on UV damaged skin. […] Further, there were three internal control spots on the array that corresponded to human genomic DNA contamination (HGDC), positive PCR control (PPC), and reverse transcription control (RTC).

B1: Nell 1: Full-length human recombinant NELL1 protein (isoform 1, SEQ ID NO: 2), expressed in a wheat germ cell-free translation system, obtained from Abnova (protein, listed as Homo sapiens)
chain: MPMDLILVVWFCVCTARTVVGFGMDPDLQMDIVTELDLVNTTLGVAQVSGMHNASKAFLFQDIEREIHAAPHVSEKLIQLFRNKSEFTILATVQQKPSTSGVILSIRELEHSYFELESSGLRDEIRYHYIHNGKPRTEALPYRMADGQWHKVALSVSASHLLLHVDCNRIYERVIDPPDTNLPPGINLWLGQRNQKHGLFKGIIQDGKIIFMPNGYITQCPNLNHTCPTCSDFLSLVQGIMDLQELLAKMTAKLNYAETRLSQLENCHCEKTCQVSGLLYRDQDSWVDGDHCRNCTCKSGAVECRRMSCPPLNCSPDSLPVHIAGQCCKVCRPKCIYGGKVLAEGQRILTKSCRECRGGVLVKITEMCPPLNCSEKDHILPENQCCRVCRGHNFCAEGPKCGENSECKNWNTKATCECKSGYISVQGDSAYCEDIDECAAKMHYCHANTVCVNLPGLYRCDCVPGYIRVDDFSCTEHDECGSGQHNCDENAICTNTVQGHSCTCKPGYVGNGTICRAFCEEGCRYGGTCVAPNKCVCPSGFTGSHCEKDIDECSEGIIECHNHSRCVNLPGWYHCECRSGFHDDGTYSLSGESCIDIDECALRTHTCWNDSACINLAGGFDCLCPSGPSCSGDCPHEGGLKHNGQVWTLKEDRCSVCSCKDGKIFCRRTACDCQNPSADLFCCPECDTRVTSQCLDQNGHKLYRSGDNWTHSCQQCRCLEGEVDCWPLTCPNLSCEYTAILEGECCPRCVSDPCLADNITYDIRKTCLDSYGVSRLSGSVWTMAGSPCTTCKCKNGRVCCSVDFECLQNN
- UV-induced increase in IL-1β RNA level (UV-irradiated, 100 ng/ml): slightly modulated the increases
- UV-induced increase in IL-8 RNA level (UV-irradiated, 100 ng/ml): slightly modulated the increases
- UV-induced increase in MMP-1 RNA level (UV-irradiated, 100 ng/ml): slightly modulated the increases
- significance of further increase of AQP3 RNA after UV exposure (UV-irradiated, 100 ng/ml): highly significant
- UV-elevated levels of AQP3 (UV-irradiated, 150 ng/ml): did not have the same effect
- UV-induced increase in IL-1β RNA level (UV-irradiated, 150 ng/ml): did not
- UV-induced increase in IL-8 RNA level (UV-irradiated, 150 ng/ml): did not
- UV-induced increase in MMP-1 RNA level (UV-irradiated, 150 ng/ml): did not
- AVG Ct ACTB (housekeeping gene) (100 ng/ml Nell 1): 17.67
- AVG Ct AQP3 (100 ng/ml Nell 1): 21.13
- AVG Ct BCL2L1 (100 ng/ml Nell 1): 23.22
- AVG Ct COL1A1 (100 ng/ml Nell 1): 18.36
- AVG Ct COL4A2 (100 ng/ml Nell 1): 21.55
- AVG Ct COL5A1 (100 ng/ml Nell 1): 22.98
- AVG Ct COL6A1 (100 ng/ml Nell 1): 19.15
- AVG Ct COL6A2 (100 ng/ml Nell 1): 19.19
- AVG Ct COL7A1 (100 ng/ml Nell 1): 24.38
- AVG Ct COL8A1 (100 ng/ml Nell 1): 26.96
- AVG Ct COL11A1 (100 ng/ml Nell 1): 26.86
- AVG Ct COL12A1 (100 ng/ml Nell 1): 23.95
- AVG Ct COL14A1 (100 ng/ml Nell 1): 25.64
- AVG Ct COL15A1 (100 ng/ml Nell 1): 25.01
- AVG Ct COL16A1 (100 ng/ml Nell 1): 23.42
- AVG Ct DSG1 (100 ng/ml Nell 1): 20.06
- AVG Ct ERCC1 (100 ng/ml Nell 1): 23.26
- AVG Ct FN1 (100 ng/ml Nell 1): 19.79
- AVG Ct GAPDH (housekeeping gene) (100 ng/ml Nell 1): 18.15
- AVG Ct GDF15 (100 ng/ml Nell 1): 22.21
- AVG Ct GSTM3 (100 ng/ml Nell 1): 29.13
- AVG Ct HSPA8 (100 ng/ml Nell 1): 19.74
- AVG Ct IL1A (100 ng/ml Nell 1): 24.03
- AVG Ct IL1B (100 ng/ml Nell 1): 26.48
- AVG Ct IL8 (100 ng/ml Nell 1): 17.72
- AVG Ct KAL1 (100 ng/ml Nell 1): 31.65
- AVG Ct KRT16 (100 ng/ml Nell 1): 16.35
- AVG Ct LAMA1 (100 ng/ml Nell 1): 28.16
- AVG Ct LAMA2 (100 ng/ml Nell 1): 25.03
- AVG Ct LAMA3 (100 ng/ml Nell 1): 22.41
- AVG Ct LAMA5 (100 ng/ml Nell 1): 26.3
- AVG Ct LAMB1 (100 ng/ml Nell 1): 22.34
- AVG Ct LAMB3 (100 ng/ml Nell 1): 23.78
- AVG Ct LAMC1 (100 ng/ml Nell 1): 22.72
- AVG Ct MMP1 (100 ng/ml Nell 1): 17.91
- AVG Ct MMP2 (100 ng/ml Nell 1): 18.77
- AVG Ct MT2A (100 ng/ml Nell 1): 16.81
- AVG Ct PCNA (100 ng/ml Nell 1): 23.31
- AVG Ct RPL13A (housekeeping gene) (100 ng/ml Nell 1): 20.55
- AVG Ct SIRT1 (100 ng/ml Nell 1): 26
- AVG Ct TGFBI (100 ng/ml Nell 1): 21.97
- AVG Ct THBS3 (100 ng/ml Nell 1): 28.28
- AVG Ct TNC (100 ng/ml Nell 1): 20.22
- AVG Ct VTN (100 ng/ml Nell 1): 31.83
- AVG Ct ACTB (housekeeping gene) (150 ng/ml Nell 1): 17.99
- AVG Ct AQP3 (150 ng/ml Nell 1): 21.71
- AVG Ct BCL2L1 (150 ng/ml Nell 1): 23.45
- AVG Ct COL1A1 (150 ng/ml Nell 1): 18.78
- AVG Ct COL4A2 (150 ng/ml Nell 1): 21.59
- AVG Ct COL5A1 (150 ng/ml Nell 1): 23.33
- AVG Ct COL6A1 (150 ng/ml Nell 1): 19.34
- AVG Ct COL6A2 (150 ng/ml Nell 1): 19.56
- AVG Ct COL7A1 (150 ng/ml Nell 1): 25.28
- AVG Ct COL8A1 (150 ng/ml Nell 1): 27.46
- AVG Ct COL11A1 (150 ng/ml Nell 1): 27.23
- AVG Ct COL12A1 (150 ng/ml Nell 1): 24.22
- AVG Ct COL14A1 (150 ng/ml Nell 1): 25.86
- AVG Ct COL15A1 (150 ng/ml Nell 1): 25.2
- AVG Ct COL16A1 (150 ng/ml Nell 1): 23.71
- AVG Ct DSG1 (150 ng/ml Nell 1): 20.21
- AVG Ct ERCC1 (150 ng/ml Nell 1): 23.41
- AVG Ct FN1 (150 ng/ml Nell 1): 20.13
- AVG Ct GAPDH (housekeeping gene) (150 ng/ml Nell 1): 18.08
- AVG Ct GDF15 (150 ng/ml Nell 1): 21.87
- AVG Ct GSTM3 (150 ng/ml Nell 1): 29.32
- AVG Ct HSPA8 (150 ng/ml Nell 1): 20.04
- AVG Ct IL1A (150 ng/ml Nell 1): 23.99
- AVG Ct IL1B (150 ng/ml Nell 1): 25.98
- AVG Ct IL8 (150 ng/ml Nell 1): 17.08
- AVG Ct KAL1 (150 ng/ml Nell 1): 32.24
- AVG Ct KRT16 (150 ng/ml Nell 1): 16.47
- AVG Ct LAMA1 (150 ng/ml Nell 1): 28.02
- AVG Ct LAMA2 (150 ng/ml Nell 1): 25.17
- AVG Ct LAMA3 (150 ng/ml Nell 1): 22.96
- AVG Ct LAMA5 (150 ng/ml Nell 1): 27.06
- AVG Ct LAMB1 (150 ng/ml Nell 1): 22.48
- AVG Ct LAMB3 (150 ng/ml Nell 1): 24.32
- AVG Ct LAMC1 (150 ng/ml Nell 1): 22.88
- AVG Ct MMP1 (150 ng/ml Nell 1): 17.75
- AVG Ct MMP2 (150 ng/ml Nell 1): 18.67
- AVG Ct MT2A (150 ng/ml Nell 1): 16.56
- AVG Ct PCNA (150 ng/ml Nell 1): 23.58
- AVG Ct RPL13A (housekeeping gene) (150 ng/ml Nell 1): 20.64
- AVG Ct SIRT1 (150 ng/ml Nell 1): 26.02
- AVG Ct TGFBI (150 ng/ml Nell 1): 21.91
- AVG Ct THBS3 (150 ng/ml Nell 1): 28.7
- AVG Ct TNC (150 ng/ml Nell 1): 20.2
- AVG Ct VTN (150 ng/ml Nell 1): 32.41
- gene expression in the absence of UV irradiation (no UV): some decreases in gene expression
